Source: article PMC4415972

Experiments:
[1] = target: binding sites on cultured rat hippocampal neurons; assay: immunostaining of cells or tissue; cultured rat hippocampal neurons; biotinylated STI 30 min at 37°C, then 100 nM AβOs 30 min at 37°C; AβOs detected with NU2, STI with a streptavidin conjugate; in the PIPLC experiment 100 nM fluorescent AβOs were seen directly after 1 h of 0.2 units/mL PIPLC
[2] = target: synaptic membrane proteins in SMPL Nanodiscs (immobilised on magnetic beads); assay: ELISA; magnetic bead-based: SMPL Nanodiscs immobilised through the His tag of MSP on Dynabeads; PBS with 0.1% BSA and 25 mM imidazole; AβOs 1 h at 37°C; bound AβOs detected by NU2 antibody or through biotin (Vectastain) with colorimetric HRP substrate; nonspecific binding measured with excess ATA; Kd as Aβ monomer equivalent

Substance	percent reduction of AβO binding [1] [%]	increase in assay response relative to unfractionated AβOs [2] [%]
biotinylated soybean trypsin inhibitor type II (from UniProt P01070 25-205) (natural protein)	87	
biotin-labeled high MW AβOs (larger than 50 kDa) (from UniProt P05067 672-713; P05067 672-713) (peptide)		80
